Results published in patent US12416034B2, “Recombinant production of steviol glycosides” (EVOLVA SA, priority 2011, dated 2025).

Tests used:
[1] = Stability of EUGT11: pre-incubation before RebA to RebD reaction; format: physicochemical
Procedure: Reactions were conducted to explore the stability of EUGT11 under various RebA to RebD reaction conditions. Omitting the substrate from the reaction mixture, EUGT11 was pre-incubated for various periods of time before substrate was added. Following a pre-incubation of the enzyme in 100 mM Tris-HCl buffer, substrate (100 μM RebA) and other reaction components (300 μM UDP-glucose, and 10 U/mL Alkaline Phosphatase (Fermentas/Thermo Fisher, Waltham, MA)) were added (0, 1, 4 or 24 hours after the incubation was started). The reaction was then allowed to proceed for 20 h, after which the reactions were stopped and RebD product-formation measured. Experiments were repeated at different temperatures: 30° C., 32.7° C., 35.8° C. and 37° C.

[2] = Limiting factor in RebA to RebD reaction; format: biochemical
Procedure: Under the conditions described above for EUGT11, approximately 25% of the RebA administered was converted to RebD. The limiting factor in these conditions could be either the enzyme, UDP-glucose or RebA. Experiments were set up to distinguish between these possibilities. A standard assay was allowed to run its course during 4 hours. This was followed by addition of either extra RebA substrate, extra enzyme, extra UDP-glucose or extra enzyme and UDP-glucose.
Experiments were conducted to examine the limit to this benefit of adding bolus amounts of UDP-glucose and fresh enzyme in the conversion of RebA to RebD reaction. Additional enzyme or enzyme and UDP-glucose were added after 1, 6, 24 and 28 hours. In the case of the addition of both extra EUGT11 and UDP-glucose, a conversion of more than 70% was achieved. […] Alternatively, as explained below, EUGT11 may be metabolizing the UDP-glucose.

B1: EUGT11: UDP glycosyl transferase from Oryza sativa (GenBank AC133334), SEQ ID NO:152 (protein, listed as Oryza sativa)
chain: MDSGYSSSYAAAAGMHVVICPWLAFGHLLPCLDLAQRLASRGHRVSFVSTPRNISRLPPVRPALAPLVAFVALPLPRVEGLPDGAESTNDVPHDRPDMVELHRRAFDGLAAPFSEFLGTACADWVIVDVFHHWAAAAALEHKVPCAMMLLGSAHMIASIADRRLERAETESPAAAGQGRPAAAPTFEVARMKLIRTKGSSGMSLAERFSLTLSRSSLVVGRSCVEFEPETVPLLSTLRGKPITFLGLMPPLHEGRREDGEDATVRWLDAQPAKSVVYVALGSEVPLGVEKVHELALGLELAGTRFLWALRKPTGVSDADLLPAGFEERTRGRGVVATRWVPQMSILAHAAVGAFLTHCGWNSTIEGLMFGHPLIMLPIFGDQGPNARLIEAKNAGLQVARNDGDGSFDREGVAAAIRAVAVEEESSKVFQAKAKKLQEIVADMACHERYIDGFIQQLRSYKD
activity after pre-incubation ([1]; 30° C., 4 hours): not significantly reduced
activity remaining after pre-incubation ([1]; 30° C., 24 hours): approximately one-third
activity remaining after pre-incubation ([1]; 37° C., 1 hour): approximately half
activity remaining after pre-incubation ([1]; 37° C., 4 hours): almost no activity
conversion of RebA to RebD ([2]; extra EUGT11 and UDP-glucose added after 1, 6, 24 and 28 hours): more than 70%
RebA converted to RebD ([2]; standard conditions for EUGT11): approximately 25%
